{"source": "patent US20220162330A1", "about": "(CELGENE, published 2022)", "key": {"[1]": {"target": "T1, human CD47 expressed on the cell surface (human, UniProt Q08722 19-323)", "T1 construct": "whole, on cells; also called cell surface CD47; CD47 on Raji, OCI-Ly3, Fadu cells, human RBCs, platelets and blood cells", "assay": "blocking of human SIRPα binding to OCI-Ly3 cells; competitor SIRPα (FIG. 21)"}, "human CD20 on cells": {"target": "T2, human CD20 on cells (human, UniProt P11836 1-297)", "T2 construct": "whole, on cells; The CD20+ cells in these assays also carry CD47; also called CD20 on B cells and Raji cells", "T2 sequence (looked up)": "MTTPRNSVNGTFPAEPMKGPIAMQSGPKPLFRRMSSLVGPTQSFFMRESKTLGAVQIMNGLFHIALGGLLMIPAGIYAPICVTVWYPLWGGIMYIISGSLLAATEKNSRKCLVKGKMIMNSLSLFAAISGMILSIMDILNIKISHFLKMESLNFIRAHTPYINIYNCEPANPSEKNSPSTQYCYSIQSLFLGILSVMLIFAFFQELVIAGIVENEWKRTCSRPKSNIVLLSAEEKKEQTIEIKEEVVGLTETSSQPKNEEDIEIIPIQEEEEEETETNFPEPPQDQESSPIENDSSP", "assay": "binding to Raji cells (CD20+/CD47+), MFI on the sheet (the legend paragraph 49 says SPR); the signal is not resolved between the CD20 and CD47 arms"}, "[2]": {"target": "T1, human CD47 expressed on the cell surface", "assay": "blocking of human SIRPα binding to Raji cells; competitor SIRPα at a saturating concentration, secondary antibody detection; Raji cells (CD47+/CD20+ Burkitt's lymphoma line); blocking of human SIRPα binding"}, "mouse CD47": {"target": "T3, mouse CD47 (mouse, UniProt Q61735 19-140, limits assumed)", "T3 sequence (looked up)": "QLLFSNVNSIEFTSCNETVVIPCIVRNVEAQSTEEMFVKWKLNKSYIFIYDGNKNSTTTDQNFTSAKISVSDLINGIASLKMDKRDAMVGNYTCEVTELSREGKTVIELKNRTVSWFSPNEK", "assay": "SPR"}, "human CD47 ECD [3]": {"target": "T4, human CD47 ECD (human, UniProt Q08722 19-139)", "T4 construct": "extracellular domain; also called human CD47 extracellular domain", "assay": "SPR"}, "cynomolgus CD47 ECD": {"target": "T5, cynomolgus CD47 ECD (cynomolgus, UniProt A0A2K5X523 19-139)", "T5 construct": "extracellular domain", "assay": "SPR"}, "[4]": {"target": "T1, human CD47 expressed on the cell surface", "assay": "blocking of human SIRPα binding to OCI-Ly3 cells; competitor SIRPα at a saturating concentration, secondary antibody detection; OCI-Ly3 cells (CD20+ DLBCL line); blocking of human SIRPα binding"}, "[5]": {"target": "T1, human CD47 expressed on the cell surface", "assay": "cell-based or functional assay"}, "human CD47 ECD [6]": {"target": "T4, human CD47 ECD", "assay": "column 'Human CD47 KD (µM)'; the sheet names no assay (SPR per paragraph 7 and paragraph 162)"}, "[7]": {"target": "T1, human CD47 expressed on the cell surface", "assay": "cell-based or functional assay", "remark": "listed apart in the source"}}}
{"binder": "TPP-23 (408_437 with IgG1) (antibody, V domains shown, Monospecific IgG1 with the 408_437 Fab; also called parental CD47 mAb) VH: QMQLVQSGAEVKKPGSSVKVSCKASGFNIKDYYLHWVRQAPGKGLEWMGWIDPDQGDTEYAQKFQGRVTITRDRSTSTAYMELRSLRAEDTAVYYCNAAYGSSSYPMDYWGQGTLVTVSS VL: NIQMTQSPSSLSASVGDRVTITCRASQDIHRYLSWFQQKPGKVPKHLIYRANRLVSGVPSRFSGSGSGTEFTLTISSLQPEDFATYYCLQYDEFPYTFGGGTKVEIK", "values": [{"measurement": "IC50", "setting": "[1]", "value": 0.11, "unit": "nM"}]}
{"binder": "TPP-1360 (bispecific antibody, human IgG1, kappa, IgG1 1+1 heterodimer: one detuned anti-CD47 arm and one rituximab-derived anti-CD20 arm; also called CD47×CD20 bispecific; CD47×CD20 IgG1) light 1: NIQMTQSPSSLSASVGDRVTITCRASQDIHRYLSWFQQKPGKVPKHLIYRESRFVDGVPSRFSGSGSGTEFTLTISSLQPEDFATYYCLQYDEFPYTFGGGTKVEIKRTVAAPSVFIFPPSDEELKSGTASVVCWLNNFYPREAKVQWKVDNALQSGNSEESVTEQDSKDSTYSLSSTLELSKADYEKHKVYACEVTHQGLSSPVTKSFNRGEC heavy 1: QMQLVQSGAEVKKPGSSVKVSCKASGFNIKDYYLHWVRQAPGKGLEWMGWIDPDQGDTYYAQKFQGRVTITRDRSTSTAYMELRSLRAEDTAVYYCNAAYGESSYPMDYWGQGTLVTVSSASTKGPSVFPLAPSSKSTSGGTAALGCLVKDYFPEPVTVSWNSGALTSGVHTFPAVLKSSGLYSLSSVVTVPSSSLGTQTYICNVNHKPSNTKVDKKVEPKSCDKTHTCPPCPAPELLGGPSVFLFPPKPKDTLMISRTPEVTCVVVDVSHEDPEVKFNWYVDGVEVHNAKTKPREEQYNSTYRVVSVLTVLHQDWLNGKEYKCKVSNKALPAPIEKTISKAKGQPREPQVYVLPPSREEMTKNQVSLLCLVKGFYPSDIAVEWESNGQPENNYLTWPPVLDSDGSFFLYSKLTVDKSRWQQGNVFSCSVMHEALHNHYTQKSLSLSPGK light 2: QIVLSQSPAILSASPGEKVTMTCRASSSVSYIHWFQQKPGSSPKPWIYATSNLASGVPVRFSGSGSGTSYSLTISRVEAEDAATYYCQQWTSNPPTFGGGTKLEIKRTVAAPSVAIFPPSDERLKSGTASVVCVLNNFYPREAKVQWKVDNALQSGNSQESVTEQDSKDSTYSLSSRLTLSKADYEKHKVYACEVTHQGLSSPVTKSFNRGEC heavy 2: QVQLQQPGAELVKPGASVKMSCKASGYTFTSYNMHWVKQTPGRGLEWIGAIYPGNGDTSYNQKFKGKATLTADKSSSTAYMQLSSLTSEDSAVYYCARSTYYGGDWYFNVWGAGTTVTVSAASTKGPSVFPLAPSSKSTSGGTAWLGCEVTDYFPEPVTVSWNSGALTSGVHTFPAVLESSGLYSLSSVVTVPSSSLGTQTYICNVNHKPSNTKVDKKVEPKSCDKTHTCPPCPAPELLGGPSVFLFPPKPKDTLMISRTPEVTCVVVDVSHEDPEVKFNWYVDGVEVHNAKTKPREEQYNSTYRVVSVLTVLHQDWLNGKEYKCKVSNKALPAPIEKTISKAKGQPREPQVYVYPPSREEMTKNQVSLTCLVKGFYPSDIAVEWESNGQPENNYKTTPPVLDSDGSFALVSKLTVDKSRWQQGNVFSCSVMHEALHNHYTQKSLSLSPGK", "values": [{"measurement": "binding result", "setting": "human CD20 on cells", "value": "binds"}, {"measurement": "EC50", "setting": "[2]", "value": 1.64, "unit": "nM"}, {"measurement": "binding result", "setting": "mouse CD47", "value": "no binding"}, {"measurement": "Kd", "setting": "human CD47 ECD [3]", "value": 1700, "unit": "nM"}, {"measurement": "fold decrease in affinity relative to the parental anti-CD47 binder", "setting": "human CD47 ECD [3]", "value": "~350", "unit": "fold"}, {"measurement": "Kd", "setting": "cynomolgus CD47 ECD", "value": 4510, "unit": "nM"}, {"measurement": "EC50", "setting": "[4]", "value": 1.3, "unit": "nM"}, {"measurement": "IC50 of activation of macrophage phagocytosis, OCI-Ly3 cell line", "setting": "[5]", "value": 1.4, "unit": "nM"}, {"measurement": "IC50 of activation of macrophage phagocytosis, Raji cell line", "setting": "[5]", "value": 1.8, "unit": "nM"}]}
{"binder": "TPP-1361 (bispecific antibody, human IgG1, kappa, IgG1 1+1 heterodimer; also called CD47×CD20 bispecific) light 1: NIQMTQSPSSLSASVGDRVTITCQASQDIHRYLSWFQQDPGTVPQHLIYRESRFVDGVPSRFSGSGSGTEFTLTISSLQPEDFATYYCLQYDEFPYTFGGGTKVEIKRTVAAPSVFIFPPSDEELKSGTASVVCWLNNFYPREAKVQWKVDNALQSGNSEESVTEQDSKDSTYSLSSTLELSKADYEKHKVYACEVTHQGLSSPVTKSFNRGEC heavy 1: QMQLVQSGAEVKKPGSSVKVSCKASGFNIKDYYLHWVRQAPGQGLEWMGWIDPDQGDTYYAQKFQGRVTITRDRSTSTAYMELASLTAEDTAVYYCNAAYGESSYPMDYWGQGTLVTVSSASTKGPSVFPLAPSSKSTSGGTAALGCLVKDYFPEPVTVSWNSGALTSGVHTFPAVLKSSGLYSLSSVVTVPSSSLGTQTYICNVNHKPSNTKVDKKVEPKSCDKTHTCPPCPAPELLGGPSVFLFPPKPKDTLMISRTPEVTCVVVDVSHEDPEVKFNWYVDGVEVHNAKTKPREEQYNSTYRVVSVLTVLHQDWLNGKEYKCKVSNKALPAPIEKTISKAKGQPREPQVYVLPPSREEMTKNQVSLLCLVKGFYPSDIAVEWESNGQPENNYLTWPPVLDSDGSFFLYSKLTVDKSRWQQGNVFSCSVMHEALHNHYTQKSLSLSPGK light 2: QIVLSQSPAILSASPGEKVTMTCRASSSVSYIHWFQQKPGSSPKPWIYATSNLASGVPVRFSGSGSGTSYSLTISRVEAEDAATYYCQQWTSNPPTFGGGTKLEIKRTVAAPSVAIFPPSDERLKSGTASVVCVLNNFYPREAKVQWKVDNALQSGNSQESVTEQDSKDSTYSLSSRLTLSKADYEKHKVYACEVTHQGLSSPVTKSFNRGEC heavy 2: QVQLQQPGAELVKPGASVKMSCKASGYTFTSYNMHWVKQTPGRGLEWIGAIYPGNGDTSYNQKFKGKATLTADKSSSTAYMQLSSLTSEDSAVYYCARSTYYGGDWYFNVWGAGTTVTVSAASTKGPSVFPLAPSSKSTSGGTAWLGCEVTDYFPEPVTVSWNSGALTSGVHTFPAVLESSGLYSLSSVVTVPSSSLGTQTYICNVNHKPSNTKVDKKVEPKSCDKTHTCPPCPAPELLGGPSVFLFPPKPKDTLMISRTPEVTCVVVDVSHEDPEVKFNWYVDGVEVHNAKTKPREEQYNSTYRVVSVLTVLHQDWLNGKEYKCKVSNKALPAPIEKTISKAKGQPREPQVYVYPPSREEMTKNQVSLTCLVKGFYPSDIAVEWESNGQPENNYKTTPPVLDSDGSFALVSKLTVDKSRWQQGNVFSCSVMHEALHNHYTQKSLSLSPGK", "values": [{"measurement": "Kd", "setting": "human CD47 ECD [6]", "value": 2530, "unit": "nM"}, {"measurement": "EC50 of macrophage phagocytosis of OCI-Ly3 cells (column 'OCI-Ly3 Mφ EC50 (µg/mL)')", "setting": "[7]", "value": 0.5, "unit": "µg/mL"}, {"measurement": "EC50 of macrophage phagocytosis of OCI-Ly3 cells, repeat (column 'OCI-Ly3 Mφ EC50 (µg/mL) Repeat')", "setting": "[7]", "value": 0.45, "unit": "µg/mL"}]}
{"binder": "TPP-1367 (bispecific antibody, human IgG1, kappa, IgG1 1+1 heterodimer; also called CD47/CD20 TPP1367; CD47×CD20 bispecific) anti-CD47 light chain: NIQMTQSPSSLSASVGDRVTITCRASQDIHRYLSWFQQKPGKVPKHLIYRANRLVSGVPSRFSGSGSGTEFTLTISSLQPEDFATYYCLQYDEFPYTFGGGTKVEIKRTVAAPSVFIFPPSDEELKSGTASVVCWLNNFYPREAKVQWKVDNALQSGNSEESVTEQDSKDSTYSLSSTLELSKADYEKHKVYACEVTHQGLSSPVTKSFNRGEC anti-CD47 heavy chain: QMQLVQSGAEVKKPGSSVKVSCKASGFNIKDYYLHWVRQAPGKGLEWMGWIDPDQGDTYYAQKFQGRVTITRDRSTSTAYMELRSLRAEDTAVYYCNAAYGESSYPMDYWGQGTLVTVSSASTKGPSVFPLAPSSKSTSGGTAALGCLVKDYFPEPVTVSWNSGALTSGVHTFPAVLKSSGLYSLSSVVTVPSSSLGTQTYICNVNHKPSNTKVDKKVEPKSCDKTHTCPPCPAPELLGGPSVFLFPPKPKDTLMISRTPEVTCVVVDVSHEDPEVKFNWYVDGVEVHNAKTKPREEQYNSTYRVVSVLTVLHQDWLNGKEYKCKVSNKALPAPIEKTISKAKGQPREPQVYVLPPSREEMTKNQVSLLCLVKGFYPSDIAVEWESNGQPENNYLTWPPVLDSDGSFFLYSKLTVDKSRWQQGNVFSCSVMHEALHNHYTQKSLSLSPGK anti-CD20 light chain: QIVLSQSPAILSASPGEKVTMTCRASSSVSYIHWFQQKPGSSPKPWIYATSNLASGVPVRFSGSGSGTSYSLTISRVEAEDAATYYCQQWTSNPPTFGGGTKLEIKRTVAAPSVAIFPPSDERLKSGTASVVCVLNNFYPREAKVQWKVDNALQSGNSQESVTEQDSKDSTYSLSSRLTLSKADYEKHKVYACEVTHQGLSSPVTKSFNRGEC anti-CD20 heavy chain: QVQLQQPGAELVKPGASVKMSCKASGYTFTSYNMHWVKQTPGRGLEWIGAIYPGNGDTSYNQKFKGKATLTADKSSSTAYMQLSSLTSEDSAVYYCARSTYYGGDWYFNVWGAGTTVTVSAASTKGPSVFPLAPSSKSTSGGTAWLGCEVTDYFPEPVTVSWNSGALTSGVHTFPAVLESSGLYSLSSVVTVPSSSLGTQTYICNVNHKPSNTKVDKKVEPKSCDKTHTCPPCPAPELLGGPSVFLFPPKPKDTLMISRTPEVTCVVVDVSHEDPEVKFNWYVDGVEVHNAKTKPREEQYNSTYRVVSVLTVLHQDWLNGKEYKCKVSNKALPAPIEKTISKAKGQPREPQVYVYPPSREEMTKNQVSLTCLVKGFYPSDIAVEWESNGQPENNYKTTPPVLDSDGSFALVSKLTVDKSRWQQGNVFSCSVMHEALHNHYTQKSLSLSPGK", "values": [{"measurement": "Kd", "setting": "human CD47 ECD [6]", "value": 430, "unit": "nM"}, {"measurement": "EC50 of macrophage phagocytosis of OCI-Ly3 cells (column 'OCI-Ly3 Mφ EC50 (µg/mL)')", "setting": "[7]", "value": 0.064, "unit": "µg/mL"}, {"measurement": "EC50 of macrophage phagocytosis of OCI-Ly3 cells, repeat (column 'OCI-Ly3 Mφ EC50 (µg/mL) Repeat')", "setting": "[7]", "value": 0.046, "unit": "µg/mL"}]}
